Reference: patent publication US7378087
Values belong to the substance of their own block, whether it stands above or below them.

How the values were obtained:
[1] = biological target: H-2D^b MHC class I molecule (mouse) (UniProt P01899); experiment: FACS on RMA cells; IFN +, peptide +, hβ2m +
[2] = biological target: H-2D^b MHC class I molecule (mouse) (UniProt P01899); experiment: FACS on RMA cells; IFN +, peptide +, hβ2m -
[3] = biological target: H-2D^b MHC class I molecule (mouse) (UniProt P01899); experiment: FACS on RMA cells; IFN +, peptide -, hβ2m +
[4] = biological target: H-2D^b MHC class I molecule (mouse) (UniProt P01899); experiment: FACS on RMA cells; IFN +, peptide -, hβ2m -
[5] = biological target: H-2D^b MHC class I molecule (mouse) (UniProt P01899); experiment: FACS on RMA cells; IFN -, peptide +, hβ2m +
[6] = biological target: H-2D^b MHC class I molecule (mouse) (UniProt P01899); experiment: FACS on RMA cells; IFN -, peptide -, hβ2m -
[7] = biological target: H-2D^b MHC class I molecule (mouse) (UniProt P01899); experiment: FACS on RMA-S cells; IFN +, peptide +, hβ2m +
[8] = biological target: H-2D^b MHC class I molecule (mouse) (UniProt P01899); experiment: FACS on RMA-S cells; IFN +, peptide +, hβ2m -
[9] = biological target: H-2D^b MHC class I molecule (mouse) (UniProt P01899); experiment: FACS on RMA-S cells; IFN +, peptide -, hβ2m +
[10] = biological target: H-2D^b MHC class I molecule (mouse) (UniProt P01899); experiment: FACS on RMA-S cells; IFN +, peptide -, hβ2m -
[11] = biological target: H-2D^b MHC class I molecule (mouse) (UniProt P01899); experiment: FACS on RMA-S cells; IFN -, peptide +, hβ2m +
[12] = biological target: H-2D^b MHC class I molecule (mouse) (UniProt P01899); experiment: FACS on RMA-S cells; IFN -, peptide -, hβ2m -
[13] = biological target: H-2D^b MHC class I molecule (mouse) (UniProt P01899); experiment: FACS on CMT.64 cells; IFN +, peptide -, hβ2m -
[14] = biological target: H-2D^b MHC class I molecule (mouse) (UniProt P01899); experiment: FACS on CMT.64 cells; IFN -, peptide +, hβ2m +
[15] = biological target: H-2D^b MHC class I molecule (mouse) (UniProt P01899); experiment: FACS on CMT.64 cells; IFN -, peptide -, hβ2m -
[16] = biological target: H-2D^b MHC class I molecule (mouse) (UniProt P01899); experiment: FACS on CMT.64 cells; IFN * (so in the source), peptide +, hβ2m +
[17] = biological target: H-2D^b MHC class I molecule (mouse) (UniProt P01899); experiment: FACS on CMT.64 cells
[18] = biological target: H-2D^b MHC class I molecule (mouse) (UniProt P01899); experiment: FACS on CMT.64 cells treated with IFN-γ
[19] = biological target: H-2D^b MHC class I molecule (mouse) (UniProt P01899); experiment: FACS on CMT.1-4 cells (rTAP1 transfectant)
[20] = biological target: H-2D^b MHC class I molecule (mouse) (UniProt P01899); experiment: FACS on CMT.2-1 cells (rTAP2 transfectant)
[21] = biological target: H-2D^b MHC class I molecule (mouse) (UniProt P01899); experiment: FACS on CMT.1-10 cells (rTAP1 transfectant)
[22] = biological target: H-2D^b MHC class I molecule (mouse) (UniProt P01899); experiment: FACS on CMT.2-10 cells (rTAP2 transfectant)
[23] = biological target: H-2D^b MHC class I molecule (mouse) (UniProt P01899); experiment: FACS on CMT.12-21 cells (rTAP1,2 transfectant)
[24] = biological target: H-2D^b MHC class I molecule (mouse) (UniProt P01899); experiment: single-colour FACS on RMA-S cells (linear, 5000 events)
[25] = biological target: H-2D^b MHC class I molecule (mouse) (UniProt P01899); experiment: single-colour FACS on RMA-S.ptml cells (TAP-1 antisense)
[26] = biological target: human β2-microglobulin (human) (UniProt P61769); experiment: FACS on RMA cells; IFN +, peptide +, hβ2m - (no hβ2m added: background)
[27] = biological target: human β2-microglobulin (human) (UniProt P61769); experiment: FACS on RMA cells; IFN +, peptide -, hβ2m - (no hβ2m added: background)
[28] = biological target: human β2-microglobulin (human) (UniProt P61769); experiment: FACS on RMA cells; IFN -, peptide -, hβ2m - (no hβ2m added: background)
[29] = biological target: human β2-microglobulin (human) (UniProt P61769); experiment: FACS on RMA-S cells; IFN +, peptide +, hβ2m - (no hβ2m added: background)
[30] = biological target: human β2-microglobulin (human) (UniProt P61769); experiment: FACS on RMA-S cells; IFN +, peptide -, hβ2m - (no hβ2m added: background)
[31] = biological target: human β2-microglobulin (human) (UniProt P61769); experiment: FACS on RMA-S cells; IFN -, peptide -, hβ2m - (no hβ2m added: background)
[32] = biological target: human β2-microglobulin (human) (UniProt P61769); experiment: FACS on RMA cells; IFN +, peptide +, hβ2m + (hβ2m bound on the cell surface)
[33] = biological target: human β2-microglobulin (human) (UniProt P61769); experiment: FACS on RMA cells; IFN +, peptide -, hβ2m + (hβ2m bound on the cell surface)
[34] = biological target: human β2-microglobulin (human) (UniProt P61769); experiment: FACS on RMA cells; IFN -, peptide +, hβ2m + (hβ2m bound on the cell surface)
[35] = biological target: human β2-microglobulin (human) (UniProt P61769); experiment: FACS on RMA-S cells; IFN +, peptide +, hβ2m + (hβ2m bound on the cell surface)
[36] = biological target: human β2-microglobulin (human) (UniProt P61769); experiment: FACS on RMA-S cells; IFN +, peptide -, hβ2m + (hβ2m bound on the cell surface)
[37] = biological target: human β2-microglobulin (human) (UniProt P61769); experiment: FACS on RMA-S cells; IFN -, peptide +, hβ2m + (hβ2m bound on the cell surface)
[38] = biological target: H-2K^b MHC class I molecule (mouse) (UniProt P01901); experiment: FACS on CMT.64 cells
[39] = biological target: H-2K^b MHC class I molecule (mouse) (UniProt P01901); experiment: FACS on CMT.neo cells (vector control)
[40] = biological target: H-2K^b MHC class I molecule (mouse) (UniProt P01901); experiment: FACS on CMT.64 cells treated with IFN-γ
[41] = biological target: H-2K^b MHC class I molecule (mouse) (UniProt P01901); experiment: FACS on CMT.1-1 cells (rTAP1 transfectant)
[42] = biological target: H-2K^b MHC class I molecule (mouse) (UniProt P01901); experiment: FACS on CMT.1-4 cells (rTAP1 transfectant)
[43] = biological target: H-2K^b MHC class I molecule (mouse) (UniProt P01901); experiment: FACS on CMT.2-1 cells (rTAP2 transfectant)
[44] = biological target: H-2K^b MHC class I molecule (mouse) (UniProt P01901); experiment: FACS on CMT.1-10 cells (rTAP1 transfectant)
[45] = biological target: H-2K^b MHC class I molecule (mouse) (UniProt P01901); experiment: FACS on CMT.2-10 cells (rTAP2 transfectant)
[46] = biological target: H-2K^b MHC class I molecule (mouse) (UniProt P01901); experiment: FACS on CMT.12-21 cells (rTAP1,2 transfectant)
[47] = biological target: H-2K^b MHC class I molecule (mouse) (UniProt P01901); experiment: single-colour FACS on RMA-S cells (linear, 5000 events)
[48] = biological target: H-2K^b MHC class I molecule (mouse) (UniProt P01901); experiment: single-colour FACS on RMA-S.ptml cells (TAP-1 antisense)

Sequence of UniProt P01899 (P01899 25-309 limits assumed): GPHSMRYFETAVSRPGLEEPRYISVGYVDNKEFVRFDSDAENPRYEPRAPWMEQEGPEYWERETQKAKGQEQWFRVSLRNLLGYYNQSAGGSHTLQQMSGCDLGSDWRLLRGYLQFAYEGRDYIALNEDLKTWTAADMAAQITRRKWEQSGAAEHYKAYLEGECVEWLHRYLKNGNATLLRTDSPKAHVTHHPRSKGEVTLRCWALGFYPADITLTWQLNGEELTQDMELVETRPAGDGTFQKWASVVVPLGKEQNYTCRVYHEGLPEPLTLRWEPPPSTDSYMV
Sequence of UniProt P01901 (P01901 22-305 limits assumed): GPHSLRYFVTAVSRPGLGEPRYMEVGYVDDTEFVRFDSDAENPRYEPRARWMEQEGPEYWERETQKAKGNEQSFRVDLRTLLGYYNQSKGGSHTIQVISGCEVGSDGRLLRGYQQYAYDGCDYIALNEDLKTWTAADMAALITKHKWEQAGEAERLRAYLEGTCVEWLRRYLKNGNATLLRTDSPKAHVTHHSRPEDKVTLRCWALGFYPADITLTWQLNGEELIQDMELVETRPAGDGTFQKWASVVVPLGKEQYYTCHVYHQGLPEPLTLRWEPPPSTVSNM

fluorescence units (arbitrary fluorescence units) [1]: 515
fluorescence units (arbitrary fluorescence units) [2]: 449
fluorescence units (arbitrary fluorescence units) [3]: 549
fluorescence units (arbitrary fluorescence units) [4]: 430
fluorescence units (arbitrary fluorescence units) [5]: 182
fluorescence units (arbitrary fluorescence units) [6]: 173
fluorescence units (arbitrary fluorescence units) [7]: 2
fluorescence units (arbitrary fluorescence units) [8]: 1
fluorescence units (arbitrary fluorescence units) [9]: 2
fluorescence units (arbitrary fluorescence units) [10]: 4
fluorescence units (arbitrary fluorescence units) [11]: 2
fluorescence units (arbitrary fluorescence units) [12]: 2
fluorescence units (arbitrary fluorescence units) [13]: 58
fluorescence units (arbitrary fluorescence units) [14]: 5
fluorescence units (arbitrary fluorescence units) [15]: 3
fluorescence units (arbitrary fluorescence units) [16]: 53
Substance: 28-11-5s anti H-2 D^b (α1+α2) monoclonal antibody

immunofluorescence intensity (negative control subtracted) [17]: 18
immunofluorescence intensity (negative control subtracted) [18]: 1100
immunofluorescence intensity (negative control subtracted) [19]: 164
immunofluorescence intensity (negative control subtracted) [20]: 10
immunofluorescence intensity (negative control subtracted) [21]: 68
immunofluorescence intensity (negative control subtracted) [22]: 39
immunofluorescence intensity (negative control subtracted) [23]: 103
MEAN FLUORESCENCE [24]: 130
MEAN FLUORESCENCE [25]: 96.7
Substance: 28-14-8s anti H-2 D^b (α3) monoclonal antibody

fluorescence units (arbitrary fluorescence units) [26]: 4
fluorescence units (arbitrary fluorescence units) [27]: 6
fluorescence units (arbitrary fluorescence units) [28]: 1
fluorescence units (arbitrary fluorescence units) [29]: 14
fluorescence units (arbitrary fluorescence units) [30]: 14
fluorescence units (arbitrary fluorescence units) [31]: 1
fluorescence units (arbitrary fluorescence units) [32]: 606
fluorescence units (arbitrary fluorescence units) [33]: 406
fluorescence units (arbitrary fluorescence units) [34]: 274
fluorescence units (arbitrary fluorescence units) [35]: 262
fluorescence units (arbitrary fluorescence units) [36]: 76
fluorescence units (arbitrary fluorescence units) [37]: 86
Substance: BBM.1 monoclonal antibody against human β2m

immunofluorescence intensity (negative control subtracted) [38]: 0
immunofluorescence intensity (negative control subtracted) [39]: 0.1
immunofluorescence intensity (negative control subtracted) [40]: 590
immunofluorescence intensity (negative control subtracted) [41]: 62
immunofluorescence intensity (negative control subtracted) [42]: 64
immunofluorescence intensity (negative control subtracted) [43]: 3
immunofluorescence intensity (negative control subtracted) [44]: 36
immunofluorescence intensity (negative control subtracted) [45]: 48
immunofluorescence intensity (negative control subtracted) [46]: 22
MEAN FLUORESCENCE [47]: 222
MEAN FLUORESCENCE [48]: 149
Substance: Y-3 anti-H-2K^b monoclonal antibody
